These results are taken from CN106117361A (UNIV SUN YAT SEN, dated 2016).

In the assay the target is T1, CD3-His蛋白(MP-5).
T1 construct: Immunogen and panning antigen; also called CD3蛋白
Description: BLI (Octet RED96) off-rate screening, sdAb-SASA from expression medium captured on BSA-coated biosensor, CD3 at 100 nM in solution, 30°C, 1:1 Langmuir model. Background: In BLI a coated tip is dipped into the sample, and binding shifts an interference pattern.

B1: A30322 抗CD3单域抗体 (sdAb) (VHH)
VHH: EVQLVECGGGLVQAGGSLRLSCAASGRTFDTMGWFRQAPGKEREFVAAVRWSSGNTYYGNTVKGRFTISRDTATNTVYLEMNSLKHEDTAVYYCAARLAGRGAADHWGQGTQVTVSS
notes: Llama-derived sdAb; Tested as crude sdAb-SASA protein in E. coli expression medium / culture supernatant (FASEBA format), not purified; also called sdAb-SASA蛋白; not shown: SASA fusion partner from the pFASEBA vector (sdAb-SASA protein in expression medium)
As for B1, the koff (usually a measure of how fast the partners let go of each other) turned out to be 1.43e-05 s⁻¹.
